What was measured:
[1] = target: C-terminally truncated PTEN (t-PTEN, aa 1-378) (human) (UniProt P60484)
[2] = target: C-terminally truncated PTEN (t-PTEN, aa 1-378) (human) (UniProt P60484); remark: listed apart in the source

“synthetic C-tail tetraphosphorylated peptide (aa 379-403, 4p-25mer) (from UniProt P60484 379-403)” was tested, and the inhibition of t-PTEN soluble PIP3 (diC6-PIP3) phosphatase activity by the peptide in trans, malachite green phosphate release, IC50 [1] was 1000 nM and the extent of inhibition of the lipid phosphatase activity of t-PTEN by 4p-25mer with soluble PIP3 substrate [2] was > 95%.

Source: paper PMC3707082
